These results are taken from article PMC7885398, “Multi-carbon dots and aptamer based signal amplification ratiometric fluorescence probe for protein tyrosine kinase 7 detection”.

For this data set, the target named is T1, Protein tyrosine kinase 7 (PTK 7) (UniProt Q13308 31-704).
T1 sequence: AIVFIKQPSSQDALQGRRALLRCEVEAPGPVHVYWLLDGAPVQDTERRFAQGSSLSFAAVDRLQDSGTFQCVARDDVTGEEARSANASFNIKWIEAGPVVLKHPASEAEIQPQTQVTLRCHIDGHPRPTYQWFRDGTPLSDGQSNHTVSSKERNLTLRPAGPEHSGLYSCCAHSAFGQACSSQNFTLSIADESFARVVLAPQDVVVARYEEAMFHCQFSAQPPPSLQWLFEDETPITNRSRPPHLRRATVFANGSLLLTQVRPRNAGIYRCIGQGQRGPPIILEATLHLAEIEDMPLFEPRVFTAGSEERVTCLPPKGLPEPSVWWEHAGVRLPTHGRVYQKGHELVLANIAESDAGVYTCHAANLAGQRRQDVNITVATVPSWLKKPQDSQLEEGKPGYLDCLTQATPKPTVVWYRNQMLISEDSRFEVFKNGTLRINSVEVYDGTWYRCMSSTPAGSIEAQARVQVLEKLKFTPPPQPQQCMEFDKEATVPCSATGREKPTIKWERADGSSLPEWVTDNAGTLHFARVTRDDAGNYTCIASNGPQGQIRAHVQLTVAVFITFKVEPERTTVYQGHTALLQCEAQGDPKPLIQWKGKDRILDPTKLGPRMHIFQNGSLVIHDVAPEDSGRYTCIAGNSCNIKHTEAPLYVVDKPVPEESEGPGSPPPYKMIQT
The data set is described as follows: competition: displacement of y-CDs-APT from Fe3O4-cDNA, ratiometric fluorescence; Fe3O4-cDNA (S2) competitor strand; PTK7 0.1-200 ng/mL, LOD 0.016 ng/mL; Buffer, salt and pH not given in material; probe hybridisation 25 °C, 60 min; DNase I amplification. To be noted: protein: recombinant; label: y-CDs (emission 580 nm); assayed pre-hybridised to partly complementary cDNA S2 on Fe3O4; PTK7 displaces S2.

B1: APT (PTK7 aptamer), as y-CDs-APT (ssDNA)
DNA: ATCTAACTGCTGCGCCGCCGGGAAAATACTGTACGGTTAGA
modifications: conjugated to yellow carbon dots (y-CDs); attachment end not stated
Regarding B1, the binding result is “binds”.
